Test results reported in publication PMC5807507, “Crystal structures of a bacterial dipeptidyl peptidase IV reveal a novel substrate recognition mechanism distinct from that of mammalian orthologues” (Scientific Reports, 2018).

B1: PmDAP IV (Pseudoxanthomonas mexicana) (protein)
chain: AEKLTLEAITGSAPLSGPTLTKPQIAPDGSRVTFLRGKDRDRNRLDLWEYDIASGQTRLLVDSSVVLPGEEVLSDEEKARRERQRIAALSGIVDYQWSPDGKALLFPLGGELYFYDLTKSGRDAVRKLTNGGGFATDPKISPKGGFVSFIRDRNLWAIDLASGKEVQLTRDGSDTIGNGVAEFVADEEMDRHTGYWWAPDDAAIAFARIDETPVPVQKRYEVYPDRTEVVEQRYPAAGDHNVRVQLGVIAPKTGARPRWIDLGKDPDIYLARVDWRDPQRLTFQRQSRDQKKIELIETTLTNGTQRTLVTETSTTWVPLHNDLRFLKDGRFLWSSERSGFEHLYVASEDGSTLTALTQGEWVVDSLLAIDEAAGLAYVSGTRDGATEAHVYAVPLSGGEPRRLTQAPGMHAATFARNASVFVDSWSSDTTLPQIELFKADGTKLATLLVNDVSDATHPYAKYRAAHQPTAYGTLTAADGTTPLHYSLIKPAGFDPKKQYPVVVFVYGGPAAQTVTRAWPGRSDSFFNQYLAQQGYVVFTLDNRGTPRRGAAFGGALYGKQGTVEVDDQLRGIEWLKSQAFVDPARIGVYGWSNGGYMTLMLLAKHDEAYACGVAGAPVTDWALYDTHYTERYMDLPKANEAGYREASVFTHVDGIGAGKLLLIHGMADDNVLFTNSTKLMSELQKRGTPFELMTYPGAKHGLRGSDLLHRYRLTEDFFARCLKP
notes: M12I lies in the removed signal; no tag; 723 residues, 82-kDa; homodimer; crystal model Ala22-Pro745
B2: Human DPP IV (Homo sapiens) (protein)
chain: SRKTYTLTDYLKNTYRLKLYSLRWISDHEYLYKQENNILVFNAEYGNSSVFLENSTFDEFGHSINDYSISPDGQFILLEYNYVKQWRHSYTASYDIYDLNKRQLITEERIPNNTQWVTWSPVGHKLAYVWNNDIYVKIEPNLPSYRITWTGKEDIIYNGITDWVYEEEVFSAYSALWWSPNGTFLAYAQFNDTEVPLIEYSFYSDESLQYPKTVRVPYPKAGAVNPTVKFFVVNTDSLSSVTNATSIQITAPASMLIGDHYLCDVTWATQERISLQWLRRIQNYSVMDICDYDESSGRWNCLVARQHIEMSTTGWVGRFRPSEPHFTLDGNSFYKIISNEEGYRHICYFQIDKKDCTFITKGTWEVIGIEALTSDYLYYISNEYKGMPGGRNLYKIQLSDYTKVTCLSCELNPERCQYYSVSFSKEAKYYQLRCSGPGLPLYTLHSSVNDKGLRVLEDNSALDKMLQNVQMPSKKLDFIILNETKFWYQMILPPHFDKSKKYPLLLDVYAGPCSQKADTVFRLNWATYLASTENIIVASFDGRGSGYQGDKIMHAINRRLGTFEVEDQIEAARQFSKMGFVDNKRIAIWGWSYGGYVTSMVLGSGSGVFKCGIAVAPVSRWEYYDSVYTERYMGLPTPEDNLDHYRNSTVMSRAENFKQVEYLLIHGTADDNVHFQQSAQISKALVDVGVDFQAMWYTDEDHGIASSTAHQHIYTHMSHFIKQCFSLP
notes: homodimer

Legend:
[1] = substrate: Cc1cc(=O)oc2cc(NC(=O)[C@@H]3CCCN3C(=O)CN)ccc12; experiment: fluorescence of released MCA; Michaelis-Menten nonlinear fit; assay type: biochemical, Pseudoxanthomonas mexicana; details: […] substrate, […] sodium phosphate pH […] EDTA, […] Tween […] K, […] min
Source text: fluorescence of released MCA; Michaelis-Menten nonlinear fit on PmDAP IV

[2] = substrate: Cc1cc(=O)oc2cc(NC(=O)[C@@H]3CCCN3C(=O)CN)ccc12; experiment: as above; assay type: biochemical, Homo sapiens; details: […] substrate, […] sodium phosphate pH […] EDTA, […] Tween […] K, […] min
Source text: fluorescence of released MCA; Michaelis-Menten nonlinear fit on Human DPP IV

| Protein | Km [1] | kcat [1] | kcat/Km [1] | Km [2] | kcat [2] | kcat/Km [2] |
| --- | --- | --- | --- | --- | --- | --- |
| B1 | 19.4 ± 0.8 µM | 19.2 ± 0.4 s⁻¹ | 989000 ± 35000 M⁻¹ s⁻¹ | – | – | – |
| B2 | – | – | – | 37.1 ± 1.6 µM | 35.3 ± 1 s⁻¹ | 952000 ± 13000 M⁻¹ s⁻¹ |
